Source: patent US20230331872A1 (CYTOIMMUNE THERAPEUTICS, published 2023)

T1: Recombinant Human NKG2D, amino acid Phe78-Val216 (Accession #P26718) (Biolegends, #781908) (human, UniProt P26718 78-216)
T1 construct: range 78-216; Bought reagent; also called NKG2D-fusion protein; CD314
T1 sequence (looked up): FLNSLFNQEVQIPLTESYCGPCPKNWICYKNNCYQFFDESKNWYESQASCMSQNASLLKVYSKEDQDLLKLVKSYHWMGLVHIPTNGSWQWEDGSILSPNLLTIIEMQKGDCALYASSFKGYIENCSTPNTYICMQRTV


Target: T1, Recombinant Human NKG2D, amino acid …
Assay: home developed BiKE detection ELISA with NKG2D-fusion protein coated plate, 72 h serum-free NK cell supernatant
Experimental: An unique ELISA assay was developed for detecting the concentration of full human Source Scfv-anti NKG2D and GPRCSD. Firstly, the Nunc MaxiSorp™ flat-bottom plate (Invitrogen™, 44-2404-21) was coated with 100 ng/well of Recombinant Human NKG2D, amino acid Phe78-Va1216 (Accession #P26718) (Biolegends, #781908) dissolved in 100 μl of DPBS (Gibco, 14190) at 4 degree overnight. After washing with 1x DPBS buffer with final 0.05% Tween 20 and blocking with 1% BSA in 1x DPBS buffer with final 0.05% Tween 20, 100 μl of samples and standard in blocking buffer were added to each well. The standard used in this assay was a human anti human NKG2D antibody, CD314 (NKG2D)-PE, human, Cat: 130-111-645, recombinant human IgG1, Miltenyi Biotec GmbH (0.25 mg/ml). For detection, a Biotinylated Goat anti-Human IgG (H+L) Cross-Adsorbed Secondary Antibody and HRP-Conjugated Streptavidin (Thermo Scientific™, N100), as well as 1-Step™ Ultra TMB-ELISA Substrate Solution, (Bio-Rad #34029). Stop buffer used was 1 M H₃PO₄.
0.5-1×10⁶ transduced NK cells (FIG. 39) were seeded and cultured in serum free media for 72 hours. Supernatant was subsequently collected, centrifuged, and immediately added to IL-15 pre-coated ELISA plate (R&D Systems S1500) and home developed BiKE detection ELISA with NKG2D-fusion protein coated plate. […] Data present here was as average concentration from four independent donors as mean±SD.

Row | binding result | Binder
1 | binds | NKG2D-GPRC5D BiKE (NG2-BiKE) secreted from NK cells transduced with P62: NG2-BiKE BCMA-CAR--SIL-15-RQR8 (bispecific antibody, human IgG4 S228P, F234A L235A, N297Q, also called IL2 SP BiKE; NKG2D-GPRC5D BiKE-BCMA CAR-SIL-15-RQR8-P62) QVQLVESGGGLVKPGGSLRLSCAASGFTFSSYGMHWVRQAPGKGLEWVAFIRYDGSNKYYADSVKGRFTISRDNSKNTLYLQMNSLRAEDTAVYYCAKDRGLGDGTYFDYWGQGTTVTVSSGGGGSGGGGSGGGGSQSALTQPASVSGSPGQSITISCSGSSSNIGNNAVNWYQQLPGKAPKLLIYYDDLLPSGVSDRFSGSKSGTSAFLAISGLQSEDEADYYCAAWDDSLNGPVFGGGTKLTVLPSGQAGAAASESLFVSNHAYQVQLVQSGAEVKKPGASVKVSCKASGYSFTGYTMNWVRQAPGQGLEWMGLINPYNSDTNYAQKLQGRVTMTTDTSTSTAYMELRSLRSDDTAVYYCARVALRVALDYWGQGTLVTVSSGGGGSGGGGSGGGGSDIQMTQSPSSLSASVGDRVTITCKASQNVATHVGWYQQKPGKAPKRLIYSASYRYSGVPSRFSGSGSGTEFTLTISNLQPEDFATYYCQQYNRYPYTFGQGTKLEIKESKYGPPCPPCPAPEAAGGPSVFLFPPKPKDTLMISRTPEVTCVVVDVSQEDPEVQFNWYVDGVEVHNAKTKPREEQFQSTYRVVSVLTVLHQDWLNGKEYKCKVSNKGLPSSIEKTISKAKGQPREPQVYTLPPSQEEMTKNQVSLTCLVKGFYPSDIAVEWESNGQPENNYKTTPPVLDSDGSFFLYSRLTVDKSRWQEGNVFSCSVMHEALHNHYTQKSLSLSLGK
2 | binds | GPRC5D-NKG2D BiKE (GN1-BiKE) secreted from NK cells transduced with P61: GN1-BiKE BCMA-CAR--SIL-15-RQR8 (bispecific antibody, human IgG4 S228P, F234A L235A, N297Q, also called IL2 SP BiKE; GPRC5D-NKG2D BiKE-BCMA CAR-SIL-15-RQR8-P61) DIQMTQSPSSLSASVGDRVTITCKASQNVATHVGWYQQKPGKAPKRLIYSASYRYSGVPSRFSGSGSGTEFTLTISNLQPEDFATYYCQQYNRYPYTFGQGTKLEIKGGGGSGGGGSGGGGSQVQLVQSGAEVKKPGASVKVSCKASGYSFTGYTMNWVRQAPGQGLEWMGLINPYNSDTNYAQKLQGRVTMTTDTSTSTAYMELRSLRSDDTAVYYCARVALRVALDYWGQGTLVTVSSPSGQAGAAASESLFVSNHAYQSALTQPASVSGSPGQSITISCSGSSSNIGNNAVNWYQQLPGKAPKLLIYYDDLLPSGVSDRFSGSKSGTSAFLAISGLQSEDEADYYCAAWDDSLNGPVFGGGTKLTVLGGGGSGGGGSGGGGSQVQLVESGGGLVKPGGSLRLSCAASGFTFSSYGMHWVRQAPGKGLEWVAFIRYDGSNKYYADSVKGRFTISRDNSKNTLYLQMNSLRAEDTAVYYCAKDRGLGDGTYFDYWGQGTTVTVSSESKYGPPCPPCPAPEAAGGPSVFLFPPKPKDTLMISRTPEVTCVVVDVSQEDPEVQFNWYVDGVEVHNAKTKPREEQFQSTYRVVSVLTVLHQDWLNGKEYKCKVSNKGLPSSIEKTISKAKGQPREPQVYTLPPSQEEMTKNQVSLTCLVKGFYPSDIAVEWESNGQPENNYKTTPPVLDSDGSFFLYSRLTVDKSRWQEGNVFSCSVMHEALHNHYTQKSLSLSLGK
